Assay results from patent US20140314832A1 (SHANGHAI PULMONARY HOSPITAL TONGJI UNIVERSITY SCHOOL OF …, published 2014).

Assays:
[1] = target: T1, rat pulmonary surfactant protein A (rSP-A), recombinant (rat (Rattus norvegicus), UniProt P08427 21-248, limits assumed); assay: indirect phage ELISA on coated rSP-A, OD 450 nm
Procedure: (1) Single clonies obtained from the three rounds of selections and grown on 2YTAG plates were inoculated into the 72-well culture plate at 30° C., and cultured with shaking overnight. (2) 400 ul of M13K07 helper phage was put in each well of another 72-well culture plate (labeled P1 Plate) the next day. (3) 40 ul of cultured medium were taken from each well of the Master Plate, which was cultured overnight, and put in each well of the P1 Plate, and incubated at 37° C. with shaking overnight. The culture supernatant was prepared by centrifugation at 1500 g for 20 minutes set aside, and the recombinant antibody was obtained. (4) A 96-well microtiter plate was coated with rSP-A. (5) 160 ul of recombinant antibody was mixed with 40 μL of MPBS, incubated for 20 minutes at room temperature. It was then added to blocked microtiter wells and reacted for 2 hours at 37° C. (6) Washing and adding HRP secondary antibody: HRP-labeled antibody against M13KO7 was diluted 1:4000 in PBS, 200 ul of that was added to each well, and incubated and reacted for 1 hour at 37° C. (7) 200 ul TMB substrate solution was added to each well, incubated at 37° C. for about 45 minutes to develop the image, 100 ul of stop solution was added to each well to stop the development process, and measurements were taken at 450 nm. Preliminary screening was conducted to select positive clones binding to rSP-A ith specificity.

[2] = target: T1, rat pulmonary surfactant protein A …; assay: ELISA of purified nanobody on rSP-A, OD450
[3] = target: T2, natural SP-A in rat lung tissue (rat, UniProt P08427 21-248); assay: immunohistochemistry (method of Example 6, rat lung tissue)
T2 construct: The immunohistochemistry is done on rat lung tissue; also called natural SP-A in the lung tissue

[4] = target: T2, natural SP-A in rat lung tissue; assay: immunohistochemistry on rat lung tissue slices, HIS-IgG-HRP secondary
Source text: Fresh tissues from the lung, heart, liver, spleen, kidney, muscle of rat were fixed and sliced, and diluted primary antibody (Nb6, Nb17 for the experimental groups, SPA polyclonal antibody (SPA-poly-ant) as a positive control group, and alliinase as a negative control group) was dropped on. The secondary antibody was HIS-IgG-HRP. […] The binding effect of Nb17 was similar to that of SPA-poly-ant, while Nb6 had weaker binding effect than Nb 17, as there is differneces in the amino acid sequence at the antigen binding region between these two. All three antibodies had no obvious binding effect with rat heart, liver, spleen, kidney, muscle tissues, nor had the negative control group (FIG. 6).

B1: Nb27 (VHH)
VHH: MQAQLAVQLQLVESGGGLVQPGGSLRLSCEVSGSRGSIYFSGWYRQAPGKQRELVASITSGGTTNYADSVKGRFTISRDNAKNTVYLQMNSLKPEDTAVYYCNIGRYGLGGSWGQGTQVTVSSEPKTPKPQGPRGLAAAGAPVPYPDPLEPRAA
notes: Alpaca VHH clone; screened as phage clone; also called N0; 27; rSPA-Nb
affinity value relative to negative control [1]: 3 fold over negative control

B2: Nb22 (VHH)
VHH: MQAQLAGQLQLVESGGGLVQPGGSLRLSCAASGRAFSVYAVGWYRQPPGKQRELVASITDGGSTNYADSVKGRFTVSRDNARNTAYLDMNSLKVEDTAVYYCNANYGGSVLYNYWGPGTQVTVSTEPKTPKPQGPRGLAAAGAPVPYPDPLEPRAA
notes: Alpaca VHH clone; screened as phage clone; also called N0; 22; rSPA-Nb
affinity value relative to negative control [1]: 3 fold over negative control

B3: Nb48 (VHH)
VHH: MQAQLAGQLQLVESGGGLVEVGESLRLSCVALGFTLDGYAIGWFRQAPGKEREKISCISSTGDSTNYDDSVKGRFTISRDTAKSTVFLQMNNLIPEDTAIYYCGADLLARCGRVWYFPPDLNYRGQGTQVTVSSAHHSEDPGPRGLAAAGAPVPYPDPLEPRAA
notes: Alpaca VHH clone; screened as phage clone; also called N0; 48; rSPA-Nb
OD450 relative to negative control [2]: 5 fold over negative control
affinity value relative to negative control [1]: 3 fold over negative control
binding result [3]: binds

B4: Nb43 (VHH)
VHH: MQAQLAGQLQLVESGGGLVQIGGSLRLSCAASGSDFSIYHMGWYRQAPGKQRELVAAITSGGSTNYADSVKGRFTISSDNAKNTVYLQMNSLKPEDTAVYYCNADGVPEYSDYASGPVYWGQGTQVTVSSAHHSEDPGPRGLAAAGAPVPYPDPLEPRAA
notes: Alpaca VHH clone; screened as phage clone; also called N0; 43; rSPA-Nb
affinity value relative to negative control [1]: 3 fold over negative control

B5: Nb11 (VHH)
VHH: MQAQLAGQLQLVESGGGLVQPGGSLRLSCVVSGVTFNNYGMTWVRQAPGKGLEWISTIYSNGHTYYADFVKGRFTISRDNAKNTLYLQMISLKPEDTAKYYCRLTGETYRGQGTQVTVSSEPKTRKPQGPRGLAAAGAPVPYPDPLEPRAA
notes: Alpaca VHH clone; screened as phage clone; also called N0; 11; rSPA-Nb
OD450 relative to negative control [2]: 5 fold over negative control
affinity value relative to negative control [1]: 3 fold over negative control
binding result [3]: binds

B6: Nb17 (VHH)
VHH: MQAQLAVQLQLVESGGGLVQPGGSLRLSCVVSGVTISNYGMSWVRQAPGKGLEWISTIYSNGHTYSADSVKGRFTISRDNAKNTLYLQMNSLKPEDTAKYYCKLVGETHRGQGTQVTVSSEPKTPKPQGPRGLAAAGAPVPYPDPLEPRAA
notes: Alpaca VHH clone; screened as phage clone, then cloned into PET-30a, expressed in E. coli BL21 (DE3), nickel-purified, 17 kDa, detected with anti-His; also called N0; 17; rSPA-Nb
binding result [4]: binds

B7: Nb18 (VHH)
VHH: MQAQLAGQLQLVESGGGLVQPGGSLMLSCVVSGVTISNYGMTWVRQAPGKGLEWISTIYSNGHTYYADSVKGRFTASRDNAKNTLYLQMNSLKPEDTAKYYCKLTGETHRGQGTQVTVSSEPKTPKPQGPRGLAAAGAPVPYPDPLEPRAA
notes: Alpaca VHH clone; screened as phage clone; also called N0; 18; rSPA-Nb
binding result [3]: binds

B8: Nb9 (VHH)
VHH: MQAQLAGQLQLVESGGGLVQPGGSLRLSCTASEFTLDYHSIGWFRQAPGKEREGVSCISYGDGTTFYTDSVKGRFTISRDNAKNTVTLQMNSLKPEDTAVYYCAASPGRLLLFRLCMSEDEYDFWGQGTQVTVSSEPKTPKPQGPRGLAAAGAPVPYPDPLEPRAA
notes: Alpaca VHH clone; screened as phage clone; also called N0; rSPA-Nb
binding result [3]: binds

B9: Nb19 (VHH)
VHH: MQAQLAGQLQLVESGGGLVQPGGSLRLSCTASEFTLDYHSIGWFRQAPGKEREGVSCISYGDGTTFYTDSVKGRFTISRDNAKNTVTLQMNSLKPEDTAVYYCAASPGRLLLFRLCMSEDEYDFWGQGTQVTVSSEPKTPKPQGPRGLAAAGAPVPYPDPLEPRAA
notes: Alpaca VHH clone; screened as phage clone; also called N0; 19; rSPA-Nb
binding result [3]: binds

B10: Nb3 (VHH)
VHH: MQAQLAVQLQLVESGGGLVQPGGSLRLSCVVSGVTFNNYGMSWVRQAPGKGLEWISSIYSNGHTYSADSVKGRFTISRDNANNTLYLQMNSLKPEDTANYYCKLVGETHRGQGTQVTVSSEPNTPKPQGPRGLAAAGAPVPYPDPLEPRAAYTVESCLA
notes: as for B8
affinity value relative to negative control [1]: 3 fold over negative control

B11: Nb34 (VHH)
VHH: MQAQLAVQLQLVESGGGTVQPGGSLNLSCVTSGFTFSRHDMSWVRQAPGKGPEWISGIGTSGTSGRYASSVKGRFTISRDNAKDTLYLQMDSLKPEDTGLYYCTTGGVYSAYVQPRGKGTQVTVSSAHHSEDPGPRGLAAAGAPVPYPDPLEPRAA
notes: Alpaca VHH clone; screened as phage clone; also called N0; 34; rSPA-Nb
affinity value relative to negative control [1]: 3 fold over negative control

B12: Nb32 (VHH)
VHH: MQAQLAGQLQLVESGGGLVQPGGSLRLSCTASKFHLDSYAVAWFRQTPGKEREAVSFINTSDDVTYFADSVKGRFTISRDNSKNTVYLQMNVLKPEDTSVYVCAAVRSPGPTGPSMQPMWSVPDLYDYWGQGTQVTVSSAHHSEDPGPRGLAAAGAPVPYPDPLEPRAA
notes: Alpaca VHH clone; screened as phage clone; also called N0; 32; rSPA-Nb
OD450 relative to negative control [2]: 5 fold over negative control
affinity value relative to negative control [1]: 3 fold over negative control
binding result [3]: binds

B13: Nb36 (VHH)
VHH: MQAQLAVQLQLVESGGGLVQPGGSLRLSCAASGRAFSVYAVGWYRQIPGNQREMVAAISSGGNTKYSDSVKGRFTVSSEPKTPKPQGPRGLAAAGAPVPYPDPLEPRAA
notes: screened as phage clone; also called N0; 36; rSPA-Nb
OD450 relative to negative control [2]: 5 fold over negative control
affinity value relative to negative control [1]: 3 fold over negative control

B14: Nb28 (VHH)
VHH: MQAQLAGQLQLVESGGGLVQPGGSLRLSCEASGFTFDDYAIGWFRQAPGKEREEVSCISHNGGTTNYADSVKGRFSISRDNAKNTVYLQMNGLKPEDTANYYCAGARSGLCVFFELQDYDYWGQGTQVTVSSAHHSEDPGPRGLAAAGAPVPYPDPLEPRAA
notes: Alpaca VHH clone; screened as phage clone; also called N0; 28; rSPA-Nb
affinity value relative to negative control [1]: 3 fold over negative control

B15: Nb45 (VHH)
VHH: MQAQLAVQLQLVESGGGLVQAGGSLRLSCVASGSMFNFYGMAWYRQAPGKQRELVASIDSEGRTTNYPDSLKGRFTISRDDAKSTAYLQMNNLIPDDTAVYYCNAFRGRMYDYWGQGTQVTVSSEPKTPKPQGPRGLAAAGAPVPYPDPLEPRAA
notes: Alpaca VHH clone; screened as phage clone; also called N0; 45; rSPA-Nb
affinity value relative to negative control [1]: 3 fold over negative control

B16: Nb41 (VHH)
VHH: MQAQLAGQLQLVESGGGMVQPGGSLRLSCAASGFIFSRYDMGWVRQTPGKGREWVSGINSGGGRTYYADSVKGRFTISRDDDKATLYLSMDGLKPEDTALYHCVRFTVKTPQGYYYLNDFDYWGQGTQVTVSSEPKTPKPQGPRGLAAAGAPVPYPDPLEPRAA
notes: Alpaca VHH clone; screened as phage clone; also called N0; 41; rSPA-Nb
affinity value relative to negative control [1]: 3 fold over negative control

B17: Nb47 (VHH)
VHH: MQAQLAGQLQLVESGGGRVQAGGSLTLSCAASGDIFTLASMGWYREDLHKKRELVAQLMSDGTANYGDSVKGRVTISRDDVDTTVHLRMNTLQPSDTGEYFCYIHTSREITWGRGTQVTVSQGESSAPQSSAPQATVSSAHHSEDPGPRGLAAAGAPVPYPDPLEPRAA
notes: Alpaca VHH clone; screened as phage clone; also called N0; 47; rSPA-Nb
affinity value relative to negative control [1]: 3 fold over negative control

B18: Nb1 (VHH)
VHH: MQAQLAGQLQLVESGGGLVQPGGSLKLSCTASETTFEIYPMAWYRQAPGKQRELVAGINMISSTKYIDSVKGRFTISRDNDKNTMYLQMNSLKPEDTAVYYCNLDTTMVEGVEYWGQGTQVTVSSAHHSEDPGPRGLAAAGAPVPYPDPLEPRAA
notes: Alpaca VHH clone; screened as phage clone (pCANTAB 5E); also called N0; rSPA-Nb
affinity value relative to negative control [1]: 3 fold over negative control
